Where a chain is given by its changes, count along the chain named.

First the molecules themselves.
B1: z2-XVT458 (antibody, IgG1, V domains shown)
VH: QVQLVQSGAEVKKPGASVKVSCKASGYTFTNFYIHWVRQAPGQGLEWMGSIYPNYGDTAYNQKFKDRVTMTVDTSTSTAYMELRSLRSDDTAVYYCARGYSYAMDYWGQGTTVTVSS
VL: DIQMTQSPSSVSASVGDRVTITCSASQGISGDLNWYQQKPGKAPKLLIYHTSSLHSGVPSRFSGSGSGTDFTLTISSLQPEDFATYYCQYYSKDLLTFGGGTKLEIK
B2: XVT458-z2-m2 (antibody, V domains shown)
VH: B1 VH with S50R, D57F
VL: B1 VL with S30Y, Y90A
B3: XVT458-z2-m5 (antibody, V domains shown)
VH: B1 VH with S50R, D57I
VL: B1 VL with S30Y, L54R, Y90A
B4: XVT458-z2-m3 (antibody, V domains shown)
VH: B1 VH with S50R, D57I
VL: B1 VL with S53Q, L54R, G57D, Y90G
B5: XVT458-z2-m4 (antibody, V domains shown)
VH: B1 VH with S50R, D57I
VL: B1 VL with L54R, Y90G
B6: XVT458-z2-m1 (antibody, V domains shown)
VH: B1 VH with D57F
VL: B1 VL with S30W, S53Q, G57D, Y90G
B7: XVT458-z2-m6 (antibody, V domains shown)
VH: B1 VH with D57I
VL: B1 VL with S53Q, G57D, Y90G

cynomolgus PD-1 expressed on cells (cynomolgus monkey), sequence (B0LAJ3 entry or part of it limits assumed): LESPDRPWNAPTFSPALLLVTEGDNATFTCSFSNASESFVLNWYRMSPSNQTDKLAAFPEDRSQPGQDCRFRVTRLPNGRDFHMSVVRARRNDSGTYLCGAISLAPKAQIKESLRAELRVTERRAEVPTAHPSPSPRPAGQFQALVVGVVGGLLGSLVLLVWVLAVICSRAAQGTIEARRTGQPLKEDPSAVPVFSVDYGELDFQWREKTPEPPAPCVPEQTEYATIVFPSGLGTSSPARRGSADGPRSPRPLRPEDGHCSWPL

This test has as its target cynomolgus PD-1 expressed on cells (cynomolgus monkey) (UniProt B0LAJ3). The experiment in a line: flow cytometry, CHO-S Cyno-PD-1. Background: Flow cytometry measures light scatter and fluorescence of single cells or particles in a stream.
B1: the Max MFI turned out to be 109 MFI.
Under B2 stands 367 MFI; under B3, 335 MFI; under B4, 124 MFI.
In the case of B5 it was 258 MFI; in that of B6, 70 MFI.
Under B7 stands 59 MFI.
